In US20240018502A1:

Each binder was assayed against plasma purified human complement protein C3 (human) (UniProt P01024) (assay: cell-based or functional assay).
plasma purified human complement protein C3 (human), sequence (P01024 23-667, chain 1 of 2): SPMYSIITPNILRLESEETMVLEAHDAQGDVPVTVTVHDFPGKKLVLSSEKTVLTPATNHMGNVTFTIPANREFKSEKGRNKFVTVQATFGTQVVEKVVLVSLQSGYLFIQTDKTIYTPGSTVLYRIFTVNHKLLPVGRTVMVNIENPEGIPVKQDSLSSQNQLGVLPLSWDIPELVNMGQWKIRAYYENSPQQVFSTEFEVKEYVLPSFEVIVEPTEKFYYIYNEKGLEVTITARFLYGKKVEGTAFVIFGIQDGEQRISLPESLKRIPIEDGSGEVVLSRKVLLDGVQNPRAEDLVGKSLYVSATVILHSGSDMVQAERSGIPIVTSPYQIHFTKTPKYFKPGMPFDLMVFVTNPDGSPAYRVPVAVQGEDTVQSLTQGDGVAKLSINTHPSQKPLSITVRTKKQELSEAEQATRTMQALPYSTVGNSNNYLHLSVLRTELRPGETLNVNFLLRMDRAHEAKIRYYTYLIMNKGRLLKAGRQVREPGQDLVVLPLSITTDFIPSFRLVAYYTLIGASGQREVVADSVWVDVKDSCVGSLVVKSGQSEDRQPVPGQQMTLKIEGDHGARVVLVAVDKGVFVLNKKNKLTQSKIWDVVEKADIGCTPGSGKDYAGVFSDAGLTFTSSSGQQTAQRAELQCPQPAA
plasma purified human complement protein C3 (human), sequence (P01024 672-1663, chain 2 of 2): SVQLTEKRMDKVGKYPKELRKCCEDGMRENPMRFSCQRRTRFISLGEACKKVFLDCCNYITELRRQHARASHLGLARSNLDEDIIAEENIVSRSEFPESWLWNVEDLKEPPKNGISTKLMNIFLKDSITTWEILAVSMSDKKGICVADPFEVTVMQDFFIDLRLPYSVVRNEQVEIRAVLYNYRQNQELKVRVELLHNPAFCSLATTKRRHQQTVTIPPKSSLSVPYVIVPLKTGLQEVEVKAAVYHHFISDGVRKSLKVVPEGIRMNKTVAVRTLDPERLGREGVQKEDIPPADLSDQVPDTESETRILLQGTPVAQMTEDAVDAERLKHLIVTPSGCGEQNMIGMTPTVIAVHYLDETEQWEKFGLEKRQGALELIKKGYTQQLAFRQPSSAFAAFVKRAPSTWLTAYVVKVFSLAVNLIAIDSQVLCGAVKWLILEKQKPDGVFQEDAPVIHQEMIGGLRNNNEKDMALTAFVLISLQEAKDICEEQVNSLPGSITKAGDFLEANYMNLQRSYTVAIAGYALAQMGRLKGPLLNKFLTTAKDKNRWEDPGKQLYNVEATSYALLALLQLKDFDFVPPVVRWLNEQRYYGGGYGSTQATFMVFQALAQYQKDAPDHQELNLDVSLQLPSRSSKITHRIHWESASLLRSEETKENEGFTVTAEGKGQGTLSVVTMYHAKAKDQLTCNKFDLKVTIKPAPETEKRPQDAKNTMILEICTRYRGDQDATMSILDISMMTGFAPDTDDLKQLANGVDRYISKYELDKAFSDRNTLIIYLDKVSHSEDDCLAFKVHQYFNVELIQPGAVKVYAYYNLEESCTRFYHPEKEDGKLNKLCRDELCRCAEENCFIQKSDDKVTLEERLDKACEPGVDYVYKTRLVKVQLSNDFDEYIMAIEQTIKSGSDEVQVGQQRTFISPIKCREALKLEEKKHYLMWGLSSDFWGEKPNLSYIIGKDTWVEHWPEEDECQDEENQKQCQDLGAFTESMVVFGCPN

| Binder | EC50 of hC3 cleavage |
| --- | --- |
| MTSP-1 Q38H/I41A/D60bY/F60eT/ins97aE/F97T/T98G/F99L/C122S/Q175L/Q192D (enzyme) VVGGTDADEGEWPWQVSLHALGHGHACGASLISPNWLVSAAHCYIDYRGTRYSDPTQWTAFLGLHDQSQRSAPGVQERRLKRIISHPFFNDTEGLDYDIALLELEKPAEYSSMVRPISLPDASHVFPAGKAIWVTGWGHTQYGGTGALILQKGEIRVINQTTCENLLPQLITPRMMCVGFLSGGVDSCDGDSGGPLSSVEADGRIFQAGVVSWGDGCAQRNKPGVYTRLPLFRDWIKENTGV | 4.77 nM |
| MTSP-1 ins97aY/F97H/F99L/C122S/Q175M/Q192A/D217V (enzyme) VVGGTDADEGEWPWQVSLHALGQGHICGASLISPNWLVSAAHCYIDDRGFRYSDPTQWTAFLGLHDQSQRSAPGVQERRLKRIISHPFFNDHYTLDYDIALLELEKPAEYSSMVRPISLPDASHVFPAGKAIWVTGWGHTQYGGTGALILQKGEIRVINQTTCENLLPQMITPRMMCVGFLSGGVDSCAGDSGGPLSSVEADGRIFQAGVVSWGVGCAQRNKPGVYTRLPLFRDWIKENTGV | 5.72 nM |
| MTSP-1 Q38H/I41S/D60bT/F60eS/ins97aV/F97D/T98P/F99L/C122S/G151H/Q175L/Q192V (enzyme) VVGGTDADEGEWPWQVSLHALGHGHSCGASLISPNWLVSAAHCYIDTRGSRYSDPTQWTAFLGLHDQSQRSAPGVQERRLKRIISHPFFNDDVPLDYDIALLELEKPAEYSSMVRPISLPDASHVFPAGKAIWVTGWGHTQYGGTHALILQKGEIRVINQTTCENLLPQLITPRMMCVGFLSGGVDSCVGDSGGPLSSVEADGRIFQAGVVSWGDGCAQRNKPGVYTRLPLFRDWIKENTGV | 20.2 nM |
| MTSP-1 Q38H/I41S/D60bT/F60eS/Y60gW/ins97aV/F97D/T98P/F99L/C122S/G151H/Q175L/Q192V (enzyme) VVGGTDADEGEWPWQVSLHALGHGHSCGASLISPNWLVSAAHCYIDTRGSRWSDPTQWTAFLGLHDQSQRSAPGVQERRLKRIISHPFFNDDVPLDYDIALLELEKPAEYSSMVRPISLPDASHVFPAGKAIWVTGWGHTQYGGTHALILQKGEIRVINQTTCENLLPQLITPRMMCVGFLSGGVDSCVGDSGGPLSSVEADGRIFQAGVVSWGDGCAQRNKPGVYTRLPLFRDWIKENTGV | 7.43 nM |
| MTSP-1 Q38Y/I41S/D60bR/F60eE/Y60gF/ins97aE/F97T/T98G/F99L/C122S/Q175L/Q192V (enzyme) VVGGTDADEGEWPWQVSLHALGYGHSCGASLISPNWLVSAAHCYIDRRGERFSDPTQWTAFLGLHDQSQRSAPGVQERRLKRIISHPFFNDTEGLDYDIALLELEKPAEYSSMVRPISLPDASHVFPAGKAIWVTGWGHTQYGGTGALILQKGEIRVINQTTCENLLPQLITPRMMCVGFLSGGVDSCVGDSGGPLSSVEADGRIFQAGVVSWGDGCAQRNKPGVYTRLPLFRDWIKENTGV | 25 nM |
| MTSP-1 Q38H/I41S/D60bT/F60eS/Y60gW/ins97aV/F97D/T98P/F99L/C122S/G151N/Q175A/Q192D (enzyme) VVGGTDADEGEWPWQVSLHALGHGHSCGASLISPNWLVSAAHCYIDTRGSRWSDPTQWTAFLGLHDQSQRSAPGVQERRLKRIISHPFFNDDVPLDYDIALLELEKPAEYSSMVRPISLPDASHVFPAGKAIWVTGWGHTQYGGTNALILQKGEIRVINQTTCENLLPQAITPRMMCVGFLSGGVDSCDGDSGGPLSSVEADGRIFQAGVVSWGDGCAQRNKPGVYTRLPLFRDWIKENTGV | 22.5 nM |
| MTSP-1 ins97aL/F97Q/T98G/F99L/C122S/Q175M/Q192S/D217I (enzyme) VVGGTDADEGEWPWQVSLHALGQGHICGASLISPNWLVSAAHCYIDDRGFRYSDPTQWTAFLGLHDQSQRSAPGVQERRLKRIISHPFFNDQLGLDYDIALLELEKPAEYSSMVRPISLPDASHVFPAGKAIWVTGWGHTQYGGTGALILQKGEIRVINQTTCENLLPQMITPRMMCVGFLSGGVDSCSGDSGGPLSSVEADGRIFQAGVVSWGIGCAQRNKPGVYTRLPLFRDWIKENTGV | 6.67 nM |
| MTSP-1 ins97aY/F97G/T98V/C122S/Q175M/Q192S/D217V (enzyme) VVGGTDADEGEWPWQVSLHALGQGHICGASLISPNWLVSAAHCYIDDRGFRYSDPTQWTAFLGLHDQSQRSAPGVQERRLKRIISHPFFNDGYVFDYDIALLELEKPAEYSSMVRPISLPDASHVFPAGKAIWVTGWGHTQYGGTGALILQKGEIRVINQTTCENLLPQMITPRMMCVGFLSGGVDSCSGDSGGPLSSVEADGRIFQAGVVSWGVGCAQRNKPGVYTRLPLFRDWIKENTGV | 2.42 nM |
